The assay addresses T1, LHRH receptor (LHRH-R) (human (endogenous in MCF-7 and Hs68)) (UniProt P30968).
T1 sequence: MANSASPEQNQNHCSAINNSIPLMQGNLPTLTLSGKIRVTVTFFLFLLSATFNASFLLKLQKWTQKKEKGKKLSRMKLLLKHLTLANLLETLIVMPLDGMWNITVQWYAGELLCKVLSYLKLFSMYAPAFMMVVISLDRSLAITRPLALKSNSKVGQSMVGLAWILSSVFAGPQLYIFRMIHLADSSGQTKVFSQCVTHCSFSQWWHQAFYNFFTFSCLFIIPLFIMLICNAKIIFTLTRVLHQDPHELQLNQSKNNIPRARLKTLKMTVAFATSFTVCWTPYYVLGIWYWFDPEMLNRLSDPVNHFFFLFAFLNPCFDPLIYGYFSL

B1: LHRH-BinBC (luteinizing hormone-releasing hormone peptide fused through a GSG linker to the N-terminus of the pore-forming C-terminal domain of BinB) (protein)
chain: QHWSYGLRPGGSGIPQLPQTSLLENIPEPTSLDDSGVLPKDAVRAVKGSALLPCIIVHDPNLNNSDKMKFNTYYLLEYKEYWHQLWSQIIPAHQTVKIQERTGISEVVQNSMIEDLNMYIGADFGMLFYFRSSGFKEQITRGLNRPLSQTTTQLGERVEEMEYYNSNDLDVRYVKYALAREFTLKRVNGEIVKNWVAVDYRLAGIQSYPNAPITNPLTLTKHTIIRCENSYDGHIFKTPLIFKNGEVIVKTNEELIPKINQ
On to B1, for which the IC50 of inhibition of MCF-7 cell proliferation (MTT assay, 48 h, 1-16 μM LHRH-BinBC) was found to be 11 µM.

For the origin of these results see PMC10145556.
